Test results from patent US9549967B2, “Regulation of sodium channels by PLUNC proteins” (The University of North Carolina at Chapel Hill, priority 2009, dated 2017).

Target: T1, α and γ ENaC (Rattus norvegicus, UniProt P37089+P37091)
T1 construct: expressed in transfected cells; host or cells: Xenopus laevis oocytes (cRNA injection)
T1 sequence (P37089 1-698): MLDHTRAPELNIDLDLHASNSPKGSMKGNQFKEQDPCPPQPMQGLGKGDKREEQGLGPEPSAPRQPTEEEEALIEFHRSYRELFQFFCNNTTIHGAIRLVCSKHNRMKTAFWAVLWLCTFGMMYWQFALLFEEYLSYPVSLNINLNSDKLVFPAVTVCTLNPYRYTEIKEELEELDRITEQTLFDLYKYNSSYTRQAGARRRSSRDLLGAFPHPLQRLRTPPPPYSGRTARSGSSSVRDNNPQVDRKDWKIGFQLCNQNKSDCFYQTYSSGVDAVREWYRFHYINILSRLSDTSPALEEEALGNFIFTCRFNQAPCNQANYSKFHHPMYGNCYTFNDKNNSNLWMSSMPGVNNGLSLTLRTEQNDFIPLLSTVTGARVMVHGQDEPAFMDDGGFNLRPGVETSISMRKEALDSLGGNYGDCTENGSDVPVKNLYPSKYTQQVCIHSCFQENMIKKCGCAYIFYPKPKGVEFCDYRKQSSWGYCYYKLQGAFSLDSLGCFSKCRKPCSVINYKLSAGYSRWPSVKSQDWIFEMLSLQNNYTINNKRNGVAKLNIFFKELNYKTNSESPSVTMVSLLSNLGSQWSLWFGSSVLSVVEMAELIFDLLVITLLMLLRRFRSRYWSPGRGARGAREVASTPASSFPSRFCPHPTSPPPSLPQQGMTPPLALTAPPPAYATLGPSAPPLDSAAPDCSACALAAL
T1 sequence (P37090 1-638 partner): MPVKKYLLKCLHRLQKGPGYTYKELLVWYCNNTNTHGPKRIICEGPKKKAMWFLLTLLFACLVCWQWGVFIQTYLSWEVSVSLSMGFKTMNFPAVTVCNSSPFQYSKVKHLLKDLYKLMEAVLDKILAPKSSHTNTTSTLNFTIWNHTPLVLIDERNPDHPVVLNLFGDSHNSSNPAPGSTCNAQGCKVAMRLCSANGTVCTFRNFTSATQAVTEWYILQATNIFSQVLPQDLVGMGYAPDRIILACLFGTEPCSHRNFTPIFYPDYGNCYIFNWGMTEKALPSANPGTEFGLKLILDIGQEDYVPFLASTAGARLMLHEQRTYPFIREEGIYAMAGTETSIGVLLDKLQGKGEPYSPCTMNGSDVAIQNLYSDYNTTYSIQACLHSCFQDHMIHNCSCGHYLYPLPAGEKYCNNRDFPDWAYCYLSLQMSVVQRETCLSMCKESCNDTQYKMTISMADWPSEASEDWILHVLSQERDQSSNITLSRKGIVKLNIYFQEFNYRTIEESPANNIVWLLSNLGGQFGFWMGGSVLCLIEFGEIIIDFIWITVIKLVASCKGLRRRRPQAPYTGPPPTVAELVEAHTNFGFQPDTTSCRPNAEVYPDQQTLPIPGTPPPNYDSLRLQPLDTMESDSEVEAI
T1 sequence (P37091 1-650): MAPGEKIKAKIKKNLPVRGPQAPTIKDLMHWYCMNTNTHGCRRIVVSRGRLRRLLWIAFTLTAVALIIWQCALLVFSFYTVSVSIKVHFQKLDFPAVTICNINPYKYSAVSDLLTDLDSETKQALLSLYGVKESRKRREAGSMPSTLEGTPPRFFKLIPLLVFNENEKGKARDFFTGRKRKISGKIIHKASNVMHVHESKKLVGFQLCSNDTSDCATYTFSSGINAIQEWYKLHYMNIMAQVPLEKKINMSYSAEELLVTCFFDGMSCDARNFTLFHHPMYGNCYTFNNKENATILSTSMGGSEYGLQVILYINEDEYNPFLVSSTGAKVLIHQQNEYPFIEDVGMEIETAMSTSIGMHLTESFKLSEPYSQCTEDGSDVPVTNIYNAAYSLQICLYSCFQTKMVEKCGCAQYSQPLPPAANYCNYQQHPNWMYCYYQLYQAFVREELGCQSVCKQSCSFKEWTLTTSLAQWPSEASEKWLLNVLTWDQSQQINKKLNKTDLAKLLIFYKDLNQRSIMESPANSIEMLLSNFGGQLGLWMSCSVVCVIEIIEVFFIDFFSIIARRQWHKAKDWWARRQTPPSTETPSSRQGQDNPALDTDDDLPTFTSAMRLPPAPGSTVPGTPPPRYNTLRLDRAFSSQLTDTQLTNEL
Assay: ENaC cleavage by CAP2 in Xenopus oocytes (Western blot, V5 antibody)
Format: cell-based
Conditions: αβγENaC, CAP2 and SPLUNC1 co-expressed in oocytes
Description: Western Blotting: Airway surface liquid collected as described above was also placed in protease-inhibitor cocktail (Roche) for Western blotting. The protein concentration was determined using the BCA Assay (Pierce). To obtain SPLUNC1 from Xenopus oocytes, oocytes were lysed in Laemmli buffer or oocyte media was directly sampled and placed in Laemmli buffer. Proteins were resolved using SDS-PAGE and transferred to a Polyvinylidene Fluoride (PVDF) membrane. The membrane was then probed using αSplunc1 or αV5 antibodies and a Donkey anti-Mouse HRP antibody (R&D). The blots were then incubated with ECL reagents (Pierce).
Co-Immunoprecipitation: Xenopus oocytes were injected with either HA-N-Terminus or V5-C-Terminus (HA-NT/V5-CT) tagged subunits in combination with wild type (WT) untagged rat αβγENaC subunits (0.3 ng cRNA each) with or without V5-tagged SPLUNC1 and CAP2 (1 ng cRNA each). After 24 h, 40 eggs per experimental condition were lysed with buffer containing (in mM): 20 Tris, 50 NaCl, 50 NaF, 10 β-glycerophosphate, 5 Na4P2O7 pyrophosphate, 1 EDTA, pH 7.5 and protease inhibitors (complete, Roche), aprotinin (Sigma). Cell lysates were prepared by passing the eggs through a 27 G1/2 needle twice and by centrifugation at 3,600 rpm for 10 minutes at 4° C. Supernatants were transferred to new tubes and samples were spun at 14,000 rpm for 20 minutes at 4° C. […]

B1: SPLUNC1: human SPLUNC1, 256 amino acid secreted PLUNC protein (SEQ ID NO:1); rSPLUNC1 = V5/6His-tagged protein purified from HEK293 media (protein, listed as Homo sapiens)
chain: MFQTGGLIVFYGLLAQTMAQFGGLPVPLDQTLPLNVNPALPLSPTGLAGSLTNALSNGLLSGGLLGILENLPLLDILKPGGGTSGGLLGGLLGKVTSVIPGLNNIIDIKVTDPQLLELGLVQSPDGHRLYVTIPLGIKLQVNTPLVGASLLRLAVKLDITAEILAVRDKQERIHLVLGDCTHSPGSLQISLLDGLGPLPIQGLLDSLTGILNKVLPELVQGNVCPLVNEVLRGLDITLVHDIVNMLIHGLQFVIKV
modifications: V5/6His tag
notes: rSPLUNC1 = V5/6His-tagged protein purified from HEK293 media
α and γ ENaC cleavage by CAP2: only full-length α and γ ENaC subunits could be observed
